According to PMC7116145:

Legend:
[1] = biological target: CPTX-HIS, purified recombinant (UniProt P23435); assay: SEC-MALS
[2] = biological target: NP1PTX fused to the C-terminus of a three-stranded GCN4 coiled coil (UniProt Q15818); assay: SEC-MALS
[3] = biological target: CPTX, biotinylated on a C-terminal Avitag (immobilised in SPR) (UniProt P23435); assay: SPR

Sequence of human β-neurexin-1 LNS6 domain including spliced sequence #4 (P58400 86-295): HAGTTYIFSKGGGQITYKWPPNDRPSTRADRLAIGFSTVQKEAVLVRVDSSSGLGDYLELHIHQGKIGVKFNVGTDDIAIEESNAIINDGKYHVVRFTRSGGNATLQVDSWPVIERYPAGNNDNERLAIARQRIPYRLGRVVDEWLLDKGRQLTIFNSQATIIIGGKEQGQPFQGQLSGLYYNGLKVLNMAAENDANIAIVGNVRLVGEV

Substance: CPTX-HIS, purified recombinant (from UniProt P23435 22-53; Q15818 224-431) (designed binder)
- stoichiometry N [1]: 6

Substance: NP1PTX fused to the C-terminus of a three-stranded GCN4 coiled coil (from UniProt Q15818 224-431)
- stoichiometry N [2]: 3

Substance: human β-neurexin-1 LNS6 domain including spliced sequence #4 (from UniProt P58400 86-295) (domain or fragment)
- Kd [3]: 4.9 nM
